This experiment has as its target Cab45 (UniProt Q9BRK5). Nature of the experiment: GFP-Cab45 oligomerization assay, confocal microscopy. As to conditions: reference: GFP-Cab45-WT; sites S99,T131,S142,T193,S349.

This is an account of results in paper PMC7265331.

Take “Cab45 (from UniProt Q9BRK5) GFP-Cab45-5pXE”: the “other: share of oligomers with maximum intensity <500 a.u.” value is reported as “same; reference 55”.
